In patent US20090298765A1 (Takeda / Millennium, published 2009):
Read-outs that look alike come from different tables or passages of the source. Starred links: 1 amine or outer side, 2 acyl side, 3 side chain; linkers in the order of their positions; H or OH if unused. Non-standard residues stand in square brackets, D forms with d. No end group written: not given here. *: point of attachment. Phe(F5) = N[C@@H](Cc1c(F)c(F)c(F)c(F)c1F)C(=O)O; Tyr(Me) = COc1ccc(C[C@H](N[*:1])C(=O)[*:2])cc1; Phe(4-NH2) = Nc1ccc(C[C@H](N)C(=O)O)cc1; Arg(Me) = CNC(=N)NCCC[C@H](N)C(=O)O; Fmoc = O=C(OCC1c2ccccc2-c2ccccc21)*; Lys(Me2) = CN(C)CCCC[C@H](N)C(=O)O; Abu = CC[C@H](N)C(=O)O; azaGly = NNC(=O)O

B1: Metastin (peptide)
peptide: GTSLSPPPESSGSRQQPGLSAPHSRQIPAPQGAVLVQREKDLPNYNWNSFGLRF
B2: [D-Tyr1,Ala3,Arg(Me)9]MS10 (peptide)
peptide: [dY]NANSFGL[Arg(Me)]F-NH2
modifications: N-terminus assumed
SMILES: CNC(=N)NCCC[C@H](NC(=O)[C@H](CC(C)C)NC(=O)CNC(=O)[C@H](Cc1ccccc1)NC(=O)[C@H](CO)NC(=O)[C@H](CC(N)=O)NC(=O)[C@H](C)NC(=O)[C@H](CC(N)=O)NC(=O)[C@H](N)Cc1ccc(O)cc1)C(=O)N[C@@H](Cc1ccccc1)C(N)=O
notes: also called Compound No. 169
B3: [D-Tyr1,Arg(Me)9,Trp10]MS10 (peptide)
peptide: [dY]NWNSFGL[Arg(Me)]W-NH2
modifications: N-terminus assumed
SMILES: CNC(=N)NCCC[C@H](NC(=O)[C@H](CC(C)C)NC(=O)CNC(=O)[C@H](Cc1ccccc1)NC(=O)[C@H](CO)NC(=O)[C@H](CC(N)=O)NC(=O)[C@H](Cc1c[nH]c2ccccc12)NC(=O)[C@H](CC(N)=O)NC(=O)[C@H](N)Cc1ccc(O)cc1)C(=O)N[C@@H](Cc1c[nH]c2ccccc12)C(N)=O
notes: also called Compound No. 174
B4: [D-Tyr1,Ile3,Arg(Me)9]MS10 (peptide)
peptide: [dY]NINSFGL[Arg(Me)]F-NH2
modifications: N-terminus assumed
SMILES: CC[C@H](C)[C@H](NC(=O)[C@H](CC(N)=O)NC(=O)[C@H](N)Cc1ccc(O)cc1)C(=O)N[C@@H](CC(N)=O)C(=O)N[C@@H](CO)C(=O)N[C@@H](Cc1ccccc1)C(=O)NCC(=O)N[C@@H](CC(C)C)C(=O)N[C@@H](CCCNC(=N)NC)C(=O)N[C@@H](Cc1ccccc1)C(N)=O
notes: also called Compound No. 206
B5: [D-Tyr1,Ser3,Arg(Me)9]MS10 (peptide)
peptide: [dY]NSNSFGL[Arg(Me)]F-NH2
modifications: N-terminus assumed
SMILES: CNC(=N)NCCC[C@H](NC(=O)[C@H](CC(C)C)NC(=O)CNC(=O)[C@H](Cc1ccccc1)NC(=O)[C@H](CO)NC(=O)[C@H](CC(N)=O)NC(=O)[C@H](CO)NC(=O)[C@H](CC(N)=O)NC(=O)[C@H](N)Cc1ccc(O)cc1)C(=O)N[C@@H](Cc1ccccc1)C(N)=O
notes: also called Compound No. 170
B6: [D-Tyr1,Thr5,Arg(Me)9]MS10 (peptide)
peptide: [dY]NWNTFGL[Arg(Me)]F-NH2
modifications: N-terminus assumed
SMILES: CNC(=N)NCCC[C@H](NC(=O)[C@H](CC(C)C)NC(=O)CNC(=O)[C@H](Cc1ccccc1)NC(=O)[C@@H](NC(=O)[C@H](CC(N)=O)NC(=O)[C@H](Cc1c[nH]c2ccccc12)NC(=O)[C@H](CC(N)=O)NC(=O)[C@H](N)Cc1ccc(O)cc1)[C@@H](C)O)C(=O)N[C@@H](Cc1ccccc1)C(N)=O
notes: also called Compound No. 211
B7: des(1-2)-Fmoc-MS10 (peptide)
peptide: Fmoc-WNSFGLRF-NH2
SMILES: CC(C)C[C@H](NC(=O)CNC(=O)[C@H](Cc1ccccc1)NC(=O)[C@H](CO)NC(=O)[C@H](CC(N)=O)NC(=O)[C@H](Cc1c[nH]c2ccccc12)NC(=O)OCC1c2ccccc2-c2ccccc21)C(=O)N[C@@H](CCCNC(=N)N)C(=O)N[C@@H](Cc1ccccc1)C(N)=O
notes: also called Compound No. 54
B8: [Abu8]MS10 (peptide)
peptide: YNWNSFG[Abu]RF-NH2
modifications: N-terminus assumed
SMILES: CC[C@H](NC(=O)CNC(=O)[C@H](Cc1ccccc1)NC(=O)[C@H](CO)NC(=O)[C@H](CC(N)=O)NC(=O)[C@H](Cc1c[nH]c2ccccc12)NC(=O)[C@H](CC(N)=O)NC(=O)[C@@H](N)Cc1ccc(O)cc1)C(=O)N[C@@H](CCCNC(=N)N)C(=O)N[C@@H](Cc1ccccc1)C(N)=O
notes: also called Compound No. 187
B9: des(1)-[D-Tyr2,AzaGly7,Arg(Me)9]MS10 (peptide)
peptide: [dY]WNSF[azaGly]L[Arg(Me)]F-NH2
modifications: N-terminus assumed
SMILES: CNC(=N)NCCC[C@H](NC(=O)[C@H](CC(C)C)NC(=O)NNC(=O)[C@H](Cc1ccccc1)NC(=O)[C@H](CO)NC(=O)[C@H](CC(N)=O)NC(=O)[C@H](Cc1c[nH]c2ccccc12)NC(=O)[C@H](N)Cc1ccc(O)cc1)C(=O)N[C@@H](Cc1ccccc1)C(N)=O
notes: also called Compound No. 222
B10: [D-Tyr1,Ala7,Arg(Me)9]MS10 (Compound No. 173) (peptide)
peptide: [dY]NWNSFAL[Arg(Me)]F-NH2
modifications: N-terminus assumed
SMILES: CNC(=N)NCCC[C@H](NC(=O)[C@H](CC(C)C)NC(=O)[C@H](C)NC(=O)[C@H](Cc1ccccc1)NC(=O)[C@H](CO)NC(=O)[C@H](CC(N)=O)NC(=O)[C@H](Cc1c[nH]c2ccccc12)NC(=O)[C@H](CC(N)=O)NC(=O)[C@H](N)Cc1ccc(O)cc1)C(=O)N[C@@H](Cc1ccccc1)C(N)=O

Assays:
[1] = biological target: T1, human OT7T175 (metastin receptor) (human, UniProt Q969F8 1-398); test: cell-based or functional assay
T1 sequence (Q969F8 whole entry L364H): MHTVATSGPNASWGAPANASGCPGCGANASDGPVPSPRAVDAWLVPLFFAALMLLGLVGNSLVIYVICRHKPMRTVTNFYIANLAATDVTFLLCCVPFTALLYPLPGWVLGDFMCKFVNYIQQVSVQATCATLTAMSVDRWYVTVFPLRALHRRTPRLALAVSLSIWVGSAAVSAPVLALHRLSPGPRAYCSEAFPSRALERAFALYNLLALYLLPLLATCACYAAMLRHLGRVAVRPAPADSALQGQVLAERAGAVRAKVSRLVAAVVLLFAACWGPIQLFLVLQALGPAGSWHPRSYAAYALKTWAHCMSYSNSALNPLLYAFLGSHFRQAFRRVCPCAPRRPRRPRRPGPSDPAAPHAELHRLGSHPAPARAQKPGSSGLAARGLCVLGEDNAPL

[2] = biological target: T1, human OT7T175 (metastin receptor); test: competition with Cy-5 metastin (40-54) on hOT7T175-CHO cells, FMAT
[3] = biological target: T1, human OT7T175 (metastin receptor); test: cell-based or functional assay; remark: listed apart in the source
[4] = biological target: T1, human OT7T175 (metastin receptor); test: cell-based or functional assay; remark: listed apart in the source

Binder	Ca ion level-increasing activity (FLIPR) [1]	IC50 [2]	Ca ion level-increasing activity (FLIPR) [3]	Ca ion level-increasing activity (FLIPR, 40 s) [4]
B1	1 x Metastin (1-54)	–	–	–
YNWNSFALRF-NH2 (also called Compound No. 50) [[Ala7]MS10]	30 x Metastin (1-54)	190 nM	–	–
DNWNSFGLRF-NH2 (also called Compound No. 75) [[Asp1]MS10]	1 x Metastin (1-54)	880 nM	–	–
B2	2 x Metastin (1-54)	160 nM	–	–
B3	–	420 nM	10 x Metastin (1-54)	2.3 EC50/MS10 EC50
B4	–	85 nM	10 x Metastin (1-54)	4.8 EC50/MS10 EC50
B5	1 x Metastin (1-54)	260 nM	–	–
[dY]NWTSFGL[Arg(Me)]F-NH2 (also called Compound No. 208) [[D-Tyr1,Thr4,Arg(Me)9]MS10]	–	830 nM	1 x Metastin (1-54)	7.3 EC50/MS10 EC50
B6	–	44 nM	10 x Metastin (1-54)	1.3 EC50/MS10 EC50
YNWNLFGLRF-NH2 (also called Compound No. 24) [[Leu5]MS10]	1 x Metastin (1-54)	0.83 nM	–	–
YNWNSFSLRF-NH2 (also called Compound No. 101) [[Ser7]MS10]	10 x Metastin (1-54)	100 nM	–	–
YNWNSFGLR[Tyr(Me)]-NH2 (also called Compound No. 18) [[Tyr(Me)10]MS10]	1 x Metastin (1-54)	7.7 nM	–	–
YNWNSFGARF-NH2 [[Ala8]MS10]	1 x Metastin (1-54)	–	–	–
Fmoc-NSFGLRF-NH2 [des(1-3)-Fmoc-MS10]	1 x Metastin (1-54)	–	–	–
B7	5 x Metastin (1-54)	450 nM	–	–
Fmoc-NWNSFGLRF-NH2 [des(1)-Fmoc-MS10]	5 x Metastin (1-54)	–	–	–
YKWNSFGLRF-NH2 [[Lys2]MS10]	1 x Metastin (1-54)	–	–	–
B8	–	720 nM	1 x Metastin (1-54)	1.9 EC50/MS10 EC50

Binder	Ca ion level-increasing activity (FLIPR) [1]	IC50 [2]	Ca ion level-increasing activity (FLIPR) [3]	Ca ion level-increasing activity (FLIPR, 40 s) [4]
SNWNSFGLRF-NH2 [[Ser1]MS10]	1 x Metastin (1-54)	–	–	–
B9	–	33 nM	10 x Metastin (1-54)	2.7 EC50/MS10 EC50
[dY]NWNSF[azaGly]L[Arg(Me)]F-NH2 (also called Compound No. 232) [[D-Tyr1,AzaGly7,Arg(Me)9]MS10]	–	49 nM	3 x Metastin (1-54)	3.9 EC50/MS10 EC50
KNWNSFGLRF-NH2 [[Lys1]MS10]	1 x Metastin (1-54)	–	–	–
YNWNSFGLRX (Hph10; C-terminal amide) [[Hph10]MS10]	1 x Metastin (1-54)	–	–	–
YNWNSFGL[Lys(Me2)]F-NH2 [[Lys(Me2)9]MS10]	0.5 x Metastin (1-54)	–	–	–
YNWNSFGXRF (Nle8; C-terminal amide, also called Compound No. 105) [[Nle8]MS10]	1 x Metastin (1-54)	880 nM	–	–
YNWNSFGLRX (Pya(4)10; C-terminal amide, also called Compound No. 17) [[Pya(4)10]MS10]	5 x Metastin (1-54)	0.0066 nM	–	–
YNWNSFGLRX (Nal(2)10; C-terminal amide, also called Compound No. 110) [[Nal(2)10]MS10]	20 x Metastin (1-54)	24 nM	–	–
YNWNSFGLR[Phe(F5)]-NH2 (also called Compound No. 111) [[Phe(F5)10]MS10]	3 x Metastin (1-54)	140 nM	–	–
YNWNSFGLRX (Cha10; C-terminal amide, also called Compound No. 112) [[Cha10]MS10]	2 x Metastin (1-54)	370 nM	–	–
YNWNSFGLR[Phe(4-NH2)]-NH2 (also called Compound No. 131) [[Phe(4NH2)10]MS10]	3 x Metastin (1-54)	120 nM	–	–
YNWNSFGLRX (Nal(1)10; C-terminal amide, also called Compound No. 133) [[Nal(1)10]MS10]	3 x Metastin (1-54)	330 nM	–	–
YN[dW]NSFGL[Arg(Me)]F-NH2 (also called Compound No. 143) [[D-Trp3,Arg(Me)9]MS10]	3 x Metastin (1-54)	7.7 nM	–	–
Fmoc-NSFGL[Arg(Me)]F-NH2 [des(1-3)-Fmoc-[Arg(Me)9]MS10]	1 x Metastin (1-54)	–	–	–
YNWNSXGLRF (Nal(1)6; C-terminal amide, also called Compound No. 151) [[Nal(1)6]MS10]	1 x Metastin (1-54)	300 nM	–	–
YNWNSXGLRF (D-Tyr1; Cha6; Arg(Me)9; C-terminal amide) [[D-Tyr1,Cha6,Arg(Me)9]MS10 (Compound No. 172)]	1 x Metastin (1-54)	–	–	–
B10	1 x Metastin (1-54)	–	–	–
